# Data reported in article PMC10548395.
# Target: IQ∼Sec7PH fusion protein of IQSEC3 (not stated (human or rat cDNA cloned)) (UniProt Q9UPP2)
# Test: ITC
# Sequence of UniProt Q9UPP2 (Q9UPP2 whole entry, looked up, the tested form may be a part): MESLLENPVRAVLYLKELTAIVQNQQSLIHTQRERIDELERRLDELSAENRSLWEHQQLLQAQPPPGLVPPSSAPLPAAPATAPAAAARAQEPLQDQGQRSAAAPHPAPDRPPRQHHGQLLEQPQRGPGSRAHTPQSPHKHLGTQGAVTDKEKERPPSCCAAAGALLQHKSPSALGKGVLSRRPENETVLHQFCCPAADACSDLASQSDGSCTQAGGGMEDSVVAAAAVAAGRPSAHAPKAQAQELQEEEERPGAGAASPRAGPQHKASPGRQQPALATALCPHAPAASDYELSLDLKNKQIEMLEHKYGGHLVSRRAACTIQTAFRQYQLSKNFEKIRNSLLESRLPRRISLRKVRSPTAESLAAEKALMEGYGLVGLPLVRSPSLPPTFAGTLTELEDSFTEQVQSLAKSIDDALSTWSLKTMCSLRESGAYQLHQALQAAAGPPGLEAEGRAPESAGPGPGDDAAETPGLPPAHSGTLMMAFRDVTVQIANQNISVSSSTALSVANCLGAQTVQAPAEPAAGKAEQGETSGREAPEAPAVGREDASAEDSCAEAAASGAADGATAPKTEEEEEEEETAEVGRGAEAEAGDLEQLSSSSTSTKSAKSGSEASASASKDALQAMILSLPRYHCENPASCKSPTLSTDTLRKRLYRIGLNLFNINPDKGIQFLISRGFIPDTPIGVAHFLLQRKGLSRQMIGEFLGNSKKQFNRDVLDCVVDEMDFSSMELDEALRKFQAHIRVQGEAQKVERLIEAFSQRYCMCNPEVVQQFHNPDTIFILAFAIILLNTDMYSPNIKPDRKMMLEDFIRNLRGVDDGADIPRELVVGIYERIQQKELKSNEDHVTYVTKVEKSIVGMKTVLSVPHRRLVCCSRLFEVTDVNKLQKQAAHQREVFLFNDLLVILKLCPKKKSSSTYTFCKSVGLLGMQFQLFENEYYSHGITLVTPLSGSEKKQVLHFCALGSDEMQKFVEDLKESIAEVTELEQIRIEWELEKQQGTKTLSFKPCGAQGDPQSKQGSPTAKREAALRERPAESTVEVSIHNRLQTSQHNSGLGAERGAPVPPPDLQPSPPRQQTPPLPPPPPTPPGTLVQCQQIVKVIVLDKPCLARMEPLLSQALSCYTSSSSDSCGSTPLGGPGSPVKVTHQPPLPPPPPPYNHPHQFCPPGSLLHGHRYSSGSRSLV
substance,measurement,value
calmodulin (CaM) (from UniProt P0DP25 2-149) (natural protein),Kd,1 nM
